Experimental data as given in US20200399353A1 (AGENCY FOR SCIENCE TECHNOLOGY AND RESEARCH, published 2020).
Blank lines part the entries; values can stand above or below the binder they belong to.

Legend:
[1] = molecular target: T1, cell surface Annexin A2 (ANXA2) on live cells (human, UniProt P07355 2-339, N-linked glycan (N-glycan-dependent epitope; its position is not shown by an experiment)); test: flow cytometry on live IGROV1 cells
T1 construct: Endogenous ANXA2 on live human cancer cell lines (IGROV1, MCF7 and others) and hESC; also called annexin 2
T1 sequence (P07355 2-339 limits assumed): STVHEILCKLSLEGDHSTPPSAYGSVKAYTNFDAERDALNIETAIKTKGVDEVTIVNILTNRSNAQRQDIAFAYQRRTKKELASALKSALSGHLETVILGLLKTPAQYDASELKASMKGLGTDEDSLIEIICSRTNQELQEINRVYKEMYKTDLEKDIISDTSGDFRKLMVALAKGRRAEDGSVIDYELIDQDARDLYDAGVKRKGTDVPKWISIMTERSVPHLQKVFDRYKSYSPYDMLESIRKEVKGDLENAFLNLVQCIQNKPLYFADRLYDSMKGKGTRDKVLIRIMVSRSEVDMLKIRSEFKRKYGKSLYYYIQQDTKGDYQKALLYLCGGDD

[2] = molecular target: T1, cell surface Annexin A2 (ANXA2) on live …; test: flow cytometry

- binding result [1]: binds
B1: mAb 2448 (antibody, V domains shown)
VH: VQLQESGPDLVKPSRSLSLTCTVTGYSITSGYSWHWIRQFPGNKLEWMGYIHYSGSTKYNPSLKSRISITRDTSKNQFFLQLNSVTTEDAATYYCARGSNYGFDYWGQGTTLTVSS
VL: DIELTQSPSSLAVSVGEKVTMSCKSSQSLLYSNDQKNYLAWYQQKPGQSPKLLIYWASIRESGVPDRFTGSGSGTDFTLTISSVKAEDLAVYYCQQYYIYPLTFGAGTKLEIKR

- binding result [2]: binds
B2: Chimeric mAb ch2448 (antibody, V domains shown)
VH: B1 VH
VL: B1 VL
notes: also called wildtype chimeric mAb ch2448

- binding result [2]: binds
B3: Afucosylated ch2448 (antibody, V domains shown)
VH: B1 VH
VL: B1 VL
notes: also called aF-ch2448
